Like-named read-outs stand apart in the source and are kept apart here.
What was measured:
Test in all cases: cell-based or functional assay
[1] = biological target: SARS-CoV-2 Omicron BA.1.1 spike (S) protein, pseudovirus construct (SARS-CoV-2) (UniProt P0DTC2)
[2] = biological target: SARS-CoV-2 Omicron BA.2 spike (S) protein, pseudovirus construct (SARS-CoV-2) (UniProt P0DTC2)
[3] = biological target: SARS-CoV-2 Omicron BA.3 spike (S) protein, pseudovirus construct (SARS-CoV-2) (UniProt P0DTC2)
[4] = biological target: SARS-CoV-2 Victoria spike (S) protein (SARS-CoV-2) (UniProt P0DTC2)
[5] = biological target: SARS-CoV-2 Omicron BA.1 spike (S) protein, pseudovirus construct (SARS-CoV-2) (UniProt P0DTC2)
[6] = biological target: SARS-CoV-2 spike (S) protein, Omicron BA.2.75 (SARS-CoV-2) (UniProt P0DTC2)
[7] = biological target: SARS-CoV-2 spike (S) protein, Omicron BJ.1 (SARS-CoV-2) (UniProt P0DTC2)
[8] = biological target: SARS-CoV-2 spike (S) protein, Omicron BA.4.6 (SARS-CoV-2) (UniProt P0DTC2)
[9] = biological target: SARS-CoV-2 spike (S) protein, Omicron BA.4/5 (SARS-CoV-2) (UniProt P0DTC2)
[10] = biological target: SARS-CoV-2 spike (S) protein, Omicron BA.2.75.2 (SARS-CoV-2) (UniProt P0DTC2)
[11] = biological target: SARS-CoV-2 spike (S) protein, Omicron BA.2 (SARS-CoV-2) (UniProt P0DTC2)
[12] = biological target: SARS-CoV-2 spike (S) protein, Omicron BA.2.3.20 (SARS-CoV-2) (UniProt P0DTC2)
[13] = biological target: SARS-CoV-2 spike (S) protein, Victoria strain (SARS-CoV-2) (UniProt P0DTC2)
[14] = biological target: SARS-CoV-2 Gamma spike (S) protein (SARS-CoV-2) (UniProt P0DTC2)
[15] = biological target: SARS-CoV-2 spike (S) protein, Omicron BA.1.1 (SARS-CoV-2) (UniProt P0DTC2)
[16] = biological target: SARS-CoV-2 Omicron BA.2 spike (S) protein (SARS-CoV-2) (UniProt P0DTC2)
[17] = biological target: SARS-CoV-2 spike (S) protein, Omicron BA.4.6 (SARS-CoV-2) (UniProt P0DTC2); remark: listed apart in the source
[18] = biological target: SARS-CoV-2 Beta spike (S) protein (SARS-CoV-2) (UniProt P0DTC2)
[19] = biological target: SARS-CoV-2 Delta spike (S) protein (SARS-CoV-2) (UniProt P0DTC2)
[20] = biological target: SARS-CoV-2 Alpha spike (S) protein (SARS-CoV-2) (UniProt P0DTC2)
[21] = biological target: SARS-CoV-2 spike (S) protein, Omicron BA.4/5 (SARS-CoV-2) (UniProt P0DTC2); remark: listed apart in the source
[22] = biological target: SARS-CoV-2 spike (S) protein, Omicron BA.1 (SARS-CoV-2) (UniProt P0DTC2)
[23] = biological target: SARS-CoV-2 spike (S) protein, Omicron BA.2 (SARS-CoV-2) (UniProt P0DTC2); remark: listed apart in the source
[24] = biological target: SARS-CoV-2 Omicron BA.1 spike (S) protein of the live isolate (SARS-CoV-2) (UniProt P0DTC2)
[25] = biological target: SARS-CoV-2 spike (S) protein, Omicron BA.3 (SARS-CoV-2) (UniProt P0DTC2)
[26] = biological target: SARS-CoV-2 spike (S) protein, Victoria strain (SARS-CoV-2) (UniProt P0DTC2); remark: listed apart in the source
[27] = biological target: SARS-CoV-2 Omicron BA.1.1 spike (S) protein (SARS-CoV-2) (UniProt P0DTC2)
[28] = biological target: SARS-CoV-2 spike (S) protein, Omicron BA.2.75 (SARS-CoV-2) (UniProt P0DTC2); remark: listed apart in the source

Known Antibody F (ADG10)
IC50 (ug/ml), pseudovirus [1]: > 10 µg/mL | IC50 (ug/ml), pseudovirus [2]: > 10 µg/mL | IC50 (ug/ml), pseudovirus [3]: > 10 µg/mL | IC50 (ug/ml), pseudovirus [4]: 0.007 µg/mL | IC50 (ug/ml), pseudovirus [5]: > 10 µg/mL

Known Antibody G (ADG20)
IC50 (ug/ml), pseudovirus [1]: 0.253 µg/mL | IC50 (ug/ml), pseudovirus [2]: > 10 µg/mL | IC50 (ug/ml), pseudovirus [3]: > 10 µg/mL | IC50 (ug/ml), pseudovirus [4]: 0.003 µg/mL | IC50 (ug/ml), pseudovirus [5]: 0.348 µg/mL

Known Antibody H (ADG30)
IC50 (ug/ml), pseudovirus [1]: > 10 µg/mL | IC50 (ug/ml), pseudovirus [2]: > 10 µg/mL | IC50 (ug/ml), pseudovirus [3]: > 10 µg/mL | IC50 (ug/ml), pseudovirus [4]: 0.014 µg/mL | IC50 (ug/ml), pseudovirus [5]: > 10 µg/mL

Known Antibody I (Ly-CoV-555)
IC50 (ug/ml), pseudovirus [1]: > 10 µg/mL | IC50 (ug/ml), pseudovirus [2]: > 10 µg/mL | IC50 (ug/ml), pseudovirus [3]: > 10 µg/mL | IC50 (ug/ml), pseudovirus [4]: 0.002 µg/mL | IC50 (ug/ml), pseudovirus [5]: > 10 µg/mL

Known Antibody J (Ly-CoV16)
IC50 (ug/ml), pseudovirus [1]: > 10 µg/mL | IC50 (ug/ml), pseudovirus [2]: > 10 µg/mL | IC50 (ug/ml), pseudovirus [3]: > 10 µg/mL | IC50 (ug/ml), pseudovirus [4]: 0.014 µg/mL | IC50 (ug/ml), pseudovirus [5]: > 10 µg/mL

Known Antibody K (S309)
IC50 (ug/ml), pseudovirus [1]: 0.138 µg/mL | IC50 (ug/ml), pseudovirus [2]: 0.638 µg/mL | IC50 (ug/ml), pseudovirus [3]: 0.228 µg/mL | IC50 (ug/ml), pseudovirus [4]: 0.587 µg/mL | IC50 (ug/ml), pseudovirus [5]: 0.094 µg/mL

LY-CoV1404 (bebtelovimab) (antibody)
IC50, pseudoviral neutralization [6]: 0.002 µg/mL | IC50, pseudoviral neutralization [7]: > 10 µg/mL | IC50, pseudoviral neutralization [8]: 0.001 µg/mL | IC50, pseudoviral neutralization [9]: 0.002 µg/mL | IC50, pseudoviral neutralization [10]: 0.002 µg/mL | IC50, pseudoviral neutralization [11]: 0.001 µg/mL | IC50, pseudoviral neutralization [12]: 0.018 µg/mL | IC50, pseudoviral neutralization [13]: 0.001 µg/mL

Ly-CoV16 (antibody)
IC50, authentic virus neutralization [14]: > 10 µg/mL | IC50, pseudoviral neutralization [15]: > 10 µg/mL | pseudovirus neutralisation IC50 [15]: > 10 µg/mL | IC50, authentic virus neutralization [16]: > 10 µg/mL | IC50, pseudoviral neutralization [17]: > 10 µg/mL | IC50, authentic virus neutralization [18]: > 10 µg/mL | IC50, authentic virus neutralization [19]: 0.012 µg/mL | IC50, authentic virus neutralization [4]: 0.034 µg/mL | IC50, authentic virus neutralization [20]: 3.23 µg/mL | IC50, pseudoviral neutralization [21]: > 10 µg/mL | pseudovirus neutralisation IC50 [21]: > 10 µg/mL | IC50, pseudoviral neutralization [22]: > 10 µg/mL | pseudovirus neutralisation IC50 [22]: > 10 µg/mL | IC50, pseudoviral neutralization [23]: > 10 µg/mL | pseudovirus neutralisation IC50 [23]: > 10 µg/mL | IC50, authentic virus neutralization [24]: > 10 µg/mL | IC50, pseudoviral neutralization [25]: > 10 µg/mL | pseudovirus neutralisation IC50 [25]: > 10 µg/mL | IC50, pseudoviral neutralization [26]: 0.014 µg/mL | pseudovirus neutralisation IC50 [26]: 0.014 µg/mL | IC50, authentic virus neutralization [27]: > 10 µg/mL | IC50, pseudoviral neutralization [6]: > 10 µg/mL | IC50, pseudoviral neutralization [7]: > 10 µg/mL | IC50, pseudoviral neutralization [8]: > 10 µg/mL | IC50, pseudoviral neutralization [9]: > 10 µg/mL | IC50, pseudoviral neutralization [10]: > 10 µg/mL | IC50, pseudoviral neutralization [12]: > 10 µg/mL | IC50, pseudoviral neutralization [13]: 0.014 µg/mL | pseudovirus neutralisation IC50 [28]: > 10 µg/mL

Ly-CoV-555 (antibody)
IC50, authentic virus neutralization [14]: > 10 µg/mL | IC50, authentic virus neutralization [16]: > 10 µg/mL | IC50, authentic virus neutralization [18]: > 10 µg/mL | IC50, authentic virus neutralization [19]: 8.31 µg/mL | IC50, authentic virus neutralization [4]: 0.006 µg/mL | IC50, authentic virus neutralization [20]: 0.009 µg/mL | IC50, authentic virus neutralization [24]: > 10 µg/mL | IC50, authentic virus neutralization [27]: > 10 µg/mL
